# In patent publication US20140288277:
# Legend:
# [1] = system: Fab29 (anti-VCIII, YSGR Min clone 29) (synthetic); test: filter; settings: filter binding / dot blot assay; Example 2 names the V. cholerae target VCLD1
# [2] = system: Fab30 (anti-VCIII, YSGR Min clone 30) (synthetic); test: filter; settings: filter binding / dot blot assay; Example 2 names the V. cholerae target VCLD1
# [3] = system: Fab1 (anti-tRNAiMet, YSGRX clone 1), phage displayed (synthetic); test: competition; settings: competitive phage ELISA; selection RNA carried a 29 nt 3' tag
# [4] = system: T1, Fab7 (anti-tRNAiMet) (synthetic); test: filter; settings: soluble Fab; discrete complex also in native gel
# T1 sequence: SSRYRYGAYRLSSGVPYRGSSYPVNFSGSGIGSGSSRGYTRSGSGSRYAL
# [5] = system: Fab16 (anti-FNIII, YSGR Min clone 16) (synthetic); test: filter; settings: filter binding / dot blot assay
# [6] = system: Fab8 (anti-P4-P6, YSGR Min clone 8) (synthetic); test: FP; settings: filter binding / dot blot assay
# [7] = system: Fab11 (anti-P4-P6, YSGR Min clone 11) (synthetic); test: filter; settings: filter binding / dot blot assay
substance,measurement,setting,value
VCIII glycine riboswitch,Kd,[1],38 nM
same,Kd,[2],22 nM
human initiator tRNAiMet transcript,Kd,[3],53 nM
same,Kd,[4],59 nM
FNIII glycine riboswitch,Kd,[5],160 nM
P4-P6 domain of Tetrahymena group I intron,Kd,[6],53 nM
same,Kd,[7],20 nM
